Measured values: paper PMC5931518, “Architecture of the U6 snRNP reveals specific recognition of 3′-end processed U6 snRNA”

T1: Lsm2-8 Lsm2-K20A (Saccharomyces cerevisiae, UniProt P38203;P57743;P40070;P40089;Q06406;P53905;P47093 …, K20A)
T1 sequence 1: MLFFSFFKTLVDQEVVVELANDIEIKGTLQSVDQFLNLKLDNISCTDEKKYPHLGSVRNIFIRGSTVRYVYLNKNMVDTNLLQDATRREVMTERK
T1 sequence 2: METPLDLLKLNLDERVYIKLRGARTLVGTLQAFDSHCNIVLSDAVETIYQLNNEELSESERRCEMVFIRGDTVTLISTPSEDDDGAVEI
T1 sequence 3: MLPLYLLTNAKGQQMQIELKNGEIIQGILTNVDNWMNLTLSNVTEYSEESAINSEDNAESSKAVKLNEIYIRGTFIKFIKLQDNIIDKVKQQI
T1 sequence 4: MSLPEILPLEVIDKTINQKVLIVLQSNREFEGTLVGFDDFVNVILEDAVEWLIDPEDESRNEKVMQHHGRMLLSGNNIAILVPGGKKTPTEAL
T1 sequence 5: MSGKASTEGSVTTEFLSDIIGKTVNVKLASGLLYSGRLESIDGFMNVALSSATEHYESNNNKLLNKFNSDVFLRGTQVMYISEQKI
T1 sequence 6: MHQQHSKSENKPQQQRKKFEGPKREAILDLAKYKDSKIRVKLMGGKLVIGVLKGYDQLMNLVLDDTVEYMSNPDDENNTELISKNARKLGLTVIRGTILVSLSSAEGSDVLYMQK
T1 sequence 7: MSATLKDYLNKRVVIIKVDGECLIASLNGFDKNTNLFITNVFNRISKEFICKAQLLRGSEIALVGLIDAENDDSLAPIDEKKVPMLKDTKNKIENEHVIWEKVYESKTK

T2: Lsm2-8 Lsm3-R21A (Saccharomyces cerevisiae, UniProt P38203;P57743;P40070;P40089;Q06406;P53905;P47093 …, R21A)
T2 sequence 1: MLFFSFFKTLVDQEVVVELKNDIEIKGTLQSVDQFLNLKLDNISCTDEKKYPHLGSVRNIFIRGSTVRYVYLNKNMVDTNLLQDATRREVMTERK
T2 sequence 2: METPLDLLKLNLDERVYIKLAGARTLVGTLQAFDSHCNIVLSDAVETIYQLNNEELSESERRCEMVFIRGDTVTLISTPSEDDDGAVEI
T2 sequence 3: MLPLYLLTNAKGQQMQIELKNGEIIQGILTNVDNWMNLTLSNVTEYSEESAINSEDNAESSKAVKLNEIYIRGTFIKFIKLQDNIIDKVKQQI
T2 sequence 4: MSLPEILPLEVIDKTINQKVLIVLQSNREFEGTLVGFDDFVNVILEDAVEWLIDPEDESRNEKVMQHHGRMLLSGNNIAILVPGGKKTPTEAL
T2 sequence 5: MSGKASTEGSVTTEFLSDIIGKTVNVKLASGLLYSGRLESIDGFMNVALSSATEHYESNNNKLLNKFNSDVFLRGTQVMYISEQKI
T2 sequence 6: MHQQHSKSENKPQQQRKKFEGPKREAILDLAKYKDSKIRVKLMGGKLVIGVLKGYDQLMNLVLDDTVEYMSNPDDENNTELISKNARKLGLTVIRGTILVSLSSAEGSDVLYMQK
T2 sequence 7: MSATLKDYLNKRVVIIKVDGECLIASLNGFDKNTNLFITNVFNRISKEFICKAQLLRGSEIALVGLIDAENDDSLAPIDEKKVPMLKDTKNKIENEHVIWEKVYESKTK

T3: Lsm2-8 Lsm2-K20E (Saccharomyces cerevisiae, UniProt P38203;P57743;P40070;P40089;Q06406;P53905;P47093 …, K20E)
T3 sequence 1: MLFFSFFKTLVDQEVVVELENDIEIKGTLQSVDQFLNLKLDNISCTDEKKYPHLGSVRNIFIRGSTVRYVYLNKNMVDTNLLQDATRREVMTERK
T3 sequence 2: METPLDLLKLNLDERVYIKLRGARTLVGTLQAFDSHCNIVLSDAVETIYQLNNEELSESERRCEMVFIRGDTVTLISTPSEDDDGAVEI
T3 sequence 3: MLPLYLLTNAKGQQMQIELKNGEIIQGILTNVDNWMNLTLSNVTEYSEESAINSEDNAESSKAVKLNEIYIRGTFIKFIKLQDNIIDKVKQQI
T3 sequence 4: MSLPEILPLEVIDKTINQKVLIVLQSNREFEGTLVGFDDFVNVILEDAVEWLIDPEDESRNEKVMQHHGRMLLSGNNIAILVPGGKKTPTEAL
T3 sequence 5: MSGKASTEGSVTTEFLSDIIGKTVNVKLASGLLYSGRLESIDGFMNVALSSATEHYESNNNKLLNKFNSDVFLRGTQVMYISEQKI
T3 sequence 6: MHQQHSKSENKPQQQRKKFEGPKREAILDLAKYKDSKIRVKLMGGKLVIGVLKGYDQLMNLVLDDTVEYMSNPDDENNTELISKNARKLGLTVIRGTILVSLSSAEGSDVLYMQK
T3 sequence 7: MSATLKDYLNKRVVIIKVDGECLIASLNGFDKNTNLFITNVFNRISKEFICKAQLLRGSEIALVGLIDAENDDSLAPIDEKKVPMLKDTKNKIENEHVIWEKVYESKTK

T4: Lsm2-8 construct 2 (WT) (Saccharomyces cerevisiae, UniProt P38203;P57743;P40070;P40089;Q06406;P53905;P47093 …)
T4 sequence 1: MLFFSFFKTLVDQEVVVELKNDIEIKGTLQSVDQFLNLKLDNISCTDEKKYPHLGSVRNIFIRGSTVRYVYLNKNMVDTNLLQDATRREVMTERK
T4 sequence 2: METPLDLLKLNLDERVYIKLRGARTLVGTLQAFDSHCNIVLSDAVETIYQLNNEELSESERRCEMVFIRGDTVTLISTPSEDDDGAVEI
T4 sequence 3: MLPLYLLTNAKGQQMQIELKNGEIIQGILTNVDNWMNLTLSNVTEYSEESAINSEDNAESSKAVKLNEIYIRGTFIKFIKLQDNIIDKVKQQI
T4 sequence 4: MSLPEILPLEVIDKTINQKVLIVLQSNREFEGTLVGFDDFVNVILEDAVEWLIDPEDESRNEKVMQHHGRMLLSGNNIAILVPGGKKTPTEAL
T4 sequence 5: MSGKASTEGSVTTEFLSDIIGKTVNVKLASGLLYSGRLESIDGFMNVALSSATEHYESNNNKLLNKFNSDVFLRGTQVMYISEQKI
T4 sequence 6: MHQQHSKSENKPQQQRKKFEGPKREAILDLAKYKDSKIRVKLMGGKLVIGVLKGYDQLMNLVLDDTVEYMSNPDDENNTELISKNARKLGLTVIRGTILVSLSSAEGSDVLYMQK
T4 sequence 7: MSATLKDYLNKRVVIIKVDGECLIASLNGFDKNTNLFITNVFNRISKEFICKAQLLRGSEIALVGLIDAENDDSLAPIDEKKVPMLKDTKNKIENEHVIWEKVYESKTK

T5: Lsm2-8 Lsm8-delC (Saccharomyces cerevisiae, UniProt P38203;P57743;P40070;P40089;Q06406;P53905;P47093 …)
T5 sequence 1: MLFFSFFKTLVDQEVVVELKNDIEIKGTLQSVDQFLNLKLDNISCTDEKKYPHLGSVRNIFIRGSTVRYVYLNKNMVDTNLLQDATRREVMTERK
T5 sequence 2: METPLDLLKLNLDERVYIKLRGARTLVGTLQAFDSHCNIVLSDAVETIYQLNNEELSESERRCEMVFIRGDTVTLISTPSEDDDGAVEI
T5 sequence 3: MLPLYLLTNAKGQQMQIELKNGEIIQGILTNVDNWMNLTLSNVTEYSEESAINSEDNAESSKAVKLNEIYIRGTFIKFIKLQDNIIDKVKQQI
T5 sequence 4: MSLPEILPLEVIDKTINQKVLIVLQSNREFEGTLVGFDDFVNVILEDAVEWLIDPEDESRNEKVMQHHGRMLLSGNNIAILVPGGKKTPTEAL
T5 sequence 5: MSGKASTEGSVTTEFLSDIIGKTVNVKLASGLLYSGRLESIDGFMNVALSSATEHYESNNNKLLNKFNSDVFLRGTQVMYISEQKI
T5 sequence 6: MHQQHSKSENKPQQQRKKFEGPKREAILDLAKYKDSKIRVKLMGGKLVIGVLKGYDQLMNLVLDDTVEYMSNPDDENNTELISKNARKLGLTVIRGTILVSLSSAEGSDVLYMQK
T5 sequence 7: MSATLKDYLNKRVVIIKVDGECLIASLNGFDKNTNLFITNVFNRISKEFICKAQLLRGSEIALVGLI

T6: Lsm2-8 Lsm3-R21E (Saccharomyces cerevisiae, UniProt P38203;P57743;P40070;P40089;Q06406;P53905;P47093 …, R21E)
T6 sequence 1: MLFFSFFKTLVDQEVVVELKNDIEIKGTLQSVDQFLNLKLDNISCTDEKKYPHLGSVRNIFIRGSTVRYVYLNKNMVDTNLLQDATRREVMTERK
T6 sequence 2: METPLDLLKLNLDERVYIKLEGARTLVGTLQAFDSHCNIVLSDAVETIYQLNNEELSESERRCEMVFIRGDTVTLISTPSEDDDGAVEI
T6 sequence 3: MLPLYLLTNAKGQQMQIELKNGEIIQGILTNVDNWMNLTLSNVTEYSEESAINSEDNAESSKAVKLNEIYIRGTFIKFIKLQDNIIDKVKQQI
T6 sequence 4: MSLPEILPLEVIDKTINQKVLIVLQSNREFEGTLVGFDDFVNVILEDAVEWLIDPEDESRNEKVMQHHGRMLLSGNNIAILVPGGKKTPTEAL
T6 sequence 5: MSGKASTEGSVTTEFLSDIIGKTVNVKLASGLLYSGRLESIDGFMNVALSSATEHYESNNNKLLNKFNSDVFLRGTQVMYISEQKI
T6 sequence 6: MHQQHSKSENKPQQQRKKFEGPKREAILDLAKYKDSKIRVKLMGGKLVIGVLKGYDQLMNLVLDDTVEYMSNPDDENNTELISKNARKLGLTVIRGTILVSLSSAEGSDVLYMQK
T6 sequence 7: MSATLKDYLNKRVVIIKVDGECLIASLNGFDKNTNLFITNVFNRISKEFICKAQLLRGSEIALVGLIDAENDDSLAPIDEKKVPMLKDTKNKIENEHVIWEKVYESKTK


Experiments:
Assay in all cases: fluorescence polarization; FP: 50 mM KCl or as listed 100 mM KCl in both 2x buffers, HEPES (10 mM acid + 10 mM Na salt), 10% glycerol, 1 mM TCEP, tRNA, heparin, BSA, 0.3 nM FAM-RNA; EMSA: 100 mM KCl, 20% sucrose, 20 mM bis-tris/10 mM HCl pH ~6.5, 1 mM EDTA, 1 mM TCEP, 0.01% Triton X-100, tRNA, heparin, BSA, room temperature, gel at 4 C
Lsm2-8 Lsm2-K20A = target: T1, Lsm2-8 Lsm2-K20A; details: protein: recombinant; tags: as P1; copies: 1;1;1;1;1;1;1; label: 5'-FAM; single strand
Lsm2-8 Lsm3-R21A = target: T2, Lsm2-8 Lsm3-R21A; details: protein: recombinant; tags: as P1; copies: 1;1;1;1;1;1;1; label: 5'-FAM; single strand
Lsm2-8 Lsm2-K20E = target: T3, Lsm2-8 Lsm2-K20E; details: protein: recombinant; tags: as P1; copies: 1;1;1;1;1;1;1; label: 5'-FAM; single strand
Lsm2-8 construct 2 (WT) = target: T4, Lsm2-8 construct 2 (WT); details: protein: recombinant; tags: Lsm8 C-terminal His6 (non-cleavable); Lsm3 C-terminal StrepII (non-cleavable); MBP on Lsm6 (TEV-labile); copies: 1;1;1;1;1;1;1; label: 5'-FAM; single strand
Lsm2-8 Lsm8-delC = target: T5, Lsm2-8 Lsm8-delC; details: protein: recombinant; tags: as P1; copies: 1;1;1;1;1;1;1; label: 5'-FAM; single strand
Lsm2-8 Lsm3-R21E = target: T6, Lsm2-8 Lsm3-R21E; details: protein: recombinant; tags: as P1; copies: 1;1;1;1;1;1;1; label: 5'-FAM; single strand

Binder	Kd (Lsm2-8 Lsm2-K20A)	Kd (Lsm2-8 Lsm3-R21A)	Kd (Lsm2-8 Lsm2-K20E)	Kd (Lsm2-8 construct 2 (WT))	Kd (Lsm2-8 Lsm8-delC)	Kd (Lsm2-8 Lsm3-R21E)
UUUCGUUUUU (ssRNA, 3' phosphate) [U6 104-113 3' phosphate]	841 ± 89 nM	123 ± 12 nM	2320 ± 450 nM	6.13 ± 0.87 nM	502 ± 47 nM	1150 ± 190 nM
UUUCGUUUUU (ssRNA, none (3' phosphate removed with CIP)) [U6 104-113 2',3'-cis diol]	522 ± 48 nM	40.8 ± 3.3 nM	1870 ± 370 nM	37.4 ± 4.5 nM	277 ± 32 nM	195 ± 27 nM
